Measurements published in paper PMC9002759, “The Sunflower WRINKLED1 Transcription Factor Regulates Fatty Acid Biosynthesis Genes through an AW Box Binding Sequence with a Particular Base Bias”.

Target: HaWRI1_DBD (6-His-TRX-WRI1_DBD) (Helianthus annuus (CAS-6 line), UniProt X2BZR1 51-229)
Assay: EMSA; polydIdC; 20 mM Tris-HCl pH 8.0, 250 mM NaCl, 2 mM MgCl2, 1% glycerol, 1 mM DTT, 1 mg/mL BSA, 30 min room temperature, gels at 4 °C; DIG EMSA plus 0.05 µg/µL polydIdC
Settings: protein: recombinant; tags: N-terminal 6xHis-thioredoxin fusion; label: digoxigenin; blunt

Sequence of HaWRI1_DBD (6-His-TRX-WRI1_DBD) (X2BZR1 entry or part of it): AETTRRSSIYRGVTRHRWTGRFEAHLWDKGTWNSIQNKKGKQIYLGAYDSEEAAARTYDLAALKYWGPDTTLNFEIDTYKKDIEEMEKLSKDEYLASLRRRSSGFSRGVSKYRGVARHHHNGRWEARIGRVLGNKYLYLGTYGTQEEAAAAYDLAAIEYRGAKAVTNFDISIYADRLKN

B1: FATA1 AW box 24 bp (dsDNA)
DNA 1: CAGTCCTCGTGCATATCGGAGTCT
DNA 2: AGACTCCGATATGCACGAGGACTG
binding result: binds
